The values below come from the RNAGym collection of RNA variant scans (doi:10.7554/elife.90254).

The labels stand for the following.
B1: OR4K15 (parent)
chain: GUUAACGGUCAUAGGCCAUGGAAACUAGGAGCACCAUUUCGCUGCCAGUGAAGAAAUGAACAAAGAAAAUCUGGGCCAGGCAGGCAUCAAAAGAAAUAGUCUUGCGCUCAACCAGAAAGUCUGUAAUCAUUUUAAGGGUA

This series covers variants of B1. Put plainly: self-cleavage, relative activity (ratio to wild type); higher = more cleavage; in vitro, sequencing; the parent is a self-cleaving ribozyme.
With C32G A95G, the self-cleavage was 1.87. Turning to G31A U130C, the self-cleavage was found to be 1.91. As to G31A U103C, the self-cleavage was determined as 0.46. As for A33G G80A, the self-cleavage is 0.12.

For G31U A90G, the self-cleavage was determined as 1.32. Turning to C32A G73U, the self-cleavage was determined as 0.21.

Take A33G A54C: the self-cleavage amounted to 0.95.

Take A33G A54G: the self-cleavage was found to be 1.06.

Consider A30U U131C, for which the self-cleavage worked out at 1.07.

As to C32A A47G, the self-cleavage was 0.49. The same measure for C32A A47U: 1.05; for C34G U132C: 2.44; for A30U U130C: 0.34. As to G31A U108C, the self-cleavage is 0.03. In the case of A33C A91G, the self-cleavage turned out to be 1.57.

For G31U A68G, the self-cleavage worked out at 1.26. Consider A33U U130C, for which the self-cleavage came out at 2. Take C35U A95C: the self-cleavage worked out at 0.87. For the variant A33G A52U, the self-cleavage stood at 1.42. As to A33G A52G, the self-cleavage amounted to 0.91. As to A33C U87A, the self-cleavage was found to be 1.18. Regarding A36C A114G, the self-cleavage was found to be 0.9. In the case of C35U A64G it was 1; in that of A30U G119A, 2.38; in that of C32U U120C, 1.57. For the variant C32A G79A, the self-cleavage was 0.17.

Take A30U G73U: the self-cleavage amounted to 0.17. Take A33G A68G: the self-cleavage is 1.04. For A33G A68U, the self-cleavage turned out to be 1.02. On to G31A A52G, for which the self-cleavage is 2.05.

For the variant C35U U102A, the self-cleavage was 0.81.

On to A33G A129U, for which the self-cleavage is 0.39. For A33G A129G, the self-cleavage is 0.35. As to A33G A91U, the self-cleavage turned out to be 0.94. The same measure for A33C A51U: 2.27. On to A33C A51G, for which the self-cleavage was 1.64. As for C34U A96G, the self-cleavage was found to be 2.68. As to A33U U70A, the self-cleavage turned out to be 0.33.

A33U U72G: the self-cleavage stood at 0.51. Turning to G31A A47U, the self-cleavage was 0.83. G31A A47G: the self-cleavage was 1. As to A36G A98U, the self-cleavage was determined as 2.12. In the case of A36G A98G it was 1.54; in that of A33G A111U, 0.06. In the case of C34U U72C it was 0.17. For the variant A33U U57C, the self-cleavage worked out at 0.68.

As to C32U U87C, the self-cleavage worked out at 1.36. Turning to A30U U122C, the self-cleavage amounted to 1.35. For the variant C34U G41U, the self-cleavage was found to be 1.82. Turning to G31C A56G, the self-cleavage was 1.63. For A36G A55U, the self-cleavage is 1.38.

Consider A36G A55G, for which the self-cleavage stood at 1.18. In the case of A36C A96G it was 1.9. G31A A60C: the self-cleavage worked out at 1.95. For G31A A56G, the self-cleavage came out at 1.41. On to A36C U49A, for which the self-cleavage came to 2. As for C34U A126G, the self-cleavage came out at 1.12. As to A33G A110G, the self-cleavage is 0.15. In the case of A33C A66G, the self-cleavage stood at 1.88. On to A33C A118C, for which the self-cleavage turned out to be 0.99. Regarding A33G U108C, the self-cleavage was 0.02.

On to A33G U108A, for which the self-cleavage came out at 0.02. Take C34A U43A: the self-cleavage worked out at 1.8. The same measure for A33G G83U: 0.24. As to C32U A117U, the self-cleavage was 0.3. Consider G31A U122C, for which the self-cleavage was determined as 2.04. In the case of A33G U70A it was 0.5.

For A36G A125G, the self-cleavage was 0.6. In the case of A33U U43C it was 0.26. As to C32A U39C, the self-cleavage came to 1.42. As for A33G A56G, the self-cleavage turned out to be 0.77. In the case of C34U A129G, the self-cleavage is 0.51. In the case of C32U U139C it was 1.64; in that of A36C A86U, 2.2. In the case of A36C A86G it was 1.24; in that of G31A C32U, 1.42. Consider A36G A91C, for which the self-cleavage was determined as 1.96. For A36G A91G, the self-cleavage came to 0.95. In the case of A36G A91U it was 1.95; in that of C35U A56G, 1.13. With A36C A60G, the self-cleavage stood at 0.49. As to C35U U131A, the self-cleavage was found to be 1.01. A36C A94G: the self-cleavage was determined as 1.94. For C34U A118G, the self-cleavage worked out at 1.49.

As for A33U C128A, the self-cleavage was 0.48. Turning to A33U C128U, the self-cleavage came out at 1.3. In the case of A33U A51C it was 2.09. A33U A51G: the self-cleavage came to 1.97. With A33G A98G, the self-cleavage came to 0.77.

In the case of A36G A116G, the self-cleavage amounted to 0.76. Turning to C35U A98U, the self-cleavage is 1.52. As for A33U U37C, the self-cleavage is 1.51.

Consider A30U U57C, for which the self-cleavage was 1.31. The same measure for A30U U57A: 1.02. In the case of A33U A92G it was 1.86; in that of A33U A135U, 1.79. The same measure for C34U A91G: 1.1; for A33U G74C: 0.05; for C34U U131C: 0.84. As to A33G A134G, the self-cleavage worked out at 0.52. With C34U U70C, the self-cleavage stood at 0.23. In the case of A33G A92C, the self-cleavage came to 0.81. The same measure for A33G A92G: 1.01. Regarding C34A A55G, the self-cleavage was 1.25. In the case of A33U A91G it was 0.6. Take A33U U102C: the self-cleavage is 2.32. With A36C G48A, the self-cleavage is 1.28. For A33U A110U, the self-cleavage was 1.71. As to A33U A110G, the self-cleavage came to 0.08. For A33C U108C, the self-cleavage is 0.01. Consider A33U A60U, for which the self-cleavage came to 1.68.

In the case of C34U A59U, the self-cleavage is 0.75. The same measure for A33G U122C: 0.64; for A36G A96C: 0.95.

Take G31U A82U: the self-cleavage is 0.27.

In the case of G31U A82G, the self-cleavage stood at 0.19.

With A33C A111G, the self-cleavage was 0.03. In the case of A33G A95G it was 1.48; in that of C34A U102A, 1.09; in that of C35U C88A, 1.16. As for C34U A62G, the self-cleavage is 1.25. On to A33G C42G, for which the self-cleavage was found to be 1.02. Consider C35U, for which the self-cleavage came to 1.06. On to C35A, for which the self-cleavage was determined as 1.58. For C35G, the self-cleavage amounted to 1.34. Turning to A33U A55U, the self-cleavage stood at 2.31. Turning to A33G A59G, the self-cleavage stood at 0.98.

Consider A33U G104A, for which the self-cleavage was 0.01.

Consider A36G A117U, for which the self-cleavage is 1.29. In the case of A36G A117G it was 2.27.

Regarding C34A U103C, the self-cleavage turned out to be 0.77. In the case of G31C A90G, the self-cleavage came out at 1.73.

For the variant A33U A36G, the self-cleavage came to 2.32. In the case of G31A A91U it was 1.99. Turning to C34U U122C, the self-cleavage came to 2.62. In the case of C35A A91G, the self-cleavage came to 1.42.

Regarding C35U A135G, the self-cleavage is 1.57. With A33G U49C, the self-cleavage was found to be 0.5. A33G U49G: the self-cleavage came to 0.61. Turning to A33G U97A, the self-cleavage amounted to 1.18.

Turning to A33U C85A, the self-cleavage came to 2.05. The same measure for A33C A63G: 1.98; for C35A C112U: 0.03; for A33C U49C: 1.93. For A30U U87C, the self-cleavage stood at 0.96. A33G A78U: the self-cleavage was 0.14. As to A33C U57A, the self-cleavage is 1.1. In the case of A33C A135G, the self-cleavage is 1.64. In the case of G31C U70A it was 0.94; in that of C35U U57C, 0.58. In the case of A33G A64G it was 0.5; in that of A33U U108C, 0.05. For the variant A33G U38C, the self-cleavage was determined as 1.41.

In the case of C32U A36U, the self-cleavage was 1.76.

Turning to C34U C76U, the self-cleavage was found to be 0.12. Consider G31A U70A, for which the self-cleavage was found to be 1.73.

For A36G A59G, the self-cleavage turned out to be 1.75. Regarding A36G A59U, the self-cleavage stood at 0.83. In the case of A33G A86G, the self-cleavage came out at 0.7. On to A33C A59G, for which the self-cleavage came to 1.39.

On to G31A U87A, for which the self-cleavage is 1.76.

Regarding A33G A67G, the self-cleavage turned out to be 1.06. For A33G A63U, the self-cleavage amounted to 0.76. A33G A63G: the self-cleavage came to 0.45. In the case of C34U U43A, the self-cleavage was found to be 0.99. On to A36C U38C, for which the self-cleavage came to 1.43. With A33U A125G, the self-cleavage was 0.99.
